These results are taken from the supplement of paper PMC9112550, “Optimization of the antimicrobial peptide Bac7 by deep mutational scanning” (BMC Biology, 2022).

This data set concerns Escherichia coli TOP10. The data set is described as follows: shrunken log2 fold change of peptide-encoding DNA abundance (4.5 h post-induction vs induction); higher = less antimicrobial activity (less host growth inhibition). Particulars: time post-induction: 4.5 h; library: site-saturation at positions 5, 18, 19, 20.
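Further: peptides expressed intracellularly from a pBAD plasmid library in pooled LB shake-flask culture, induced with 0.3% L-arabinose, DNA abundance read by NGS, three biological replicates, DESeq2 with apeglm shrinkage.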

Turning to RRIRYRPPRLPRPRPRPPRVPRP, the “shrunken log2 fold change” value was -0.0115. For the sequence RRIRQRPPRLPRPRPRPFAEPRP, the “shrunken log2 fold change” value is -0.00183. As for RRIRDRPPRLPRPRPRPNRDPRP, the “shrunken log2 fold change” value was -0.0372. As for RRIRERPPRLPRPRPRPEELPRP, the “shrunken log2 fold change” value was 0.174. As for RRIRKRPPRLPRPRPRPEQYPRP, the “shrunken log2 fold change” value came out at 0.104. To RRIRIRPPRLPRPRPRPKAYPRP belongs -0.124. Regarding RRIRQRPPRLPRPRPRPPFHPRP, the “shrunken log2 fold change” value was determined as 0.102.

Consider RRIRERPPRLPRPRPRPHGTPRP, for which the “shrunken log2 fold change” value stood at 0.0284. As for RRIRNRPPRLPRPRPRPASRPRP, the “shrunken log2 fold change” value is 0.12.

As for RRIRIRPPRLPRPRPRPPLYPRP, the “shrunken log2 fold change” value is -0.331.

With RRIRERPPRLPRPRPRPFHVPRP, the “shrunken log2 fold change” value was -0.854. In the case of RRIRLRPPRLPRPRPRPPFFPRP, the “shrunken log2 fold change” value came out at 0.14. On to RRIRTRPPRLPRPRPRPDVNPRP, for which the “shrunken log2 fold change” value turned out to be 0.21. Turning to RRIRMRPPRLPRPRPRPTAMPRP, the “shrunken log2 fold change” value was found to be 1.14. To RRIRNRPPRLPRPRPRPGLRPRP belongs 0.0575.

As for RRIRGRPPRLPRPRPRPIHWPRP, the “shrunken log2 fold change” value was 0.306. Consider RRIRDRPPRLPRPRPRPRRDPRP, for which the “shrunken log2 fold change” value is 0.492.

Regarding RRIRARPPRLPRPRPRPFYNPRP, the “shrunken log2 fold change” value is -0.44.

RRIRERPPRLPRPRPRPHKLPRP: the “shrunken log2 fold change” value was -0.635. Consider RRIRVRPPRLPRPRPRPQEIPRP, for which the “shrunken log2 fold change” value is -0.0438. To RRIRRRPPRLPRPRPRPKVKPRP belongs -0.0947; to RRIRGRPPRLPRPRPRPRYVPRP, -0.0805.

Consider RRIRKRPPRLPRPRPRPVYSPRP, for which the “shrunken log2 fold change” value was 0.0204. To RRIRMRPPRLPRPRPRPFEFPRP belongs -0.044. For the sequence RRIRNRPPRLPRPRPRPYHSPRP, the “shrunken log2 fold change” value was -0.654.

With RRIRTRPPRLPRPRPRPQHHPRP, the “shrunken log2 fold change” value is -0.453. With RRIRPRPPRLPRPRPRPIQRPRP the figure was 0.364. In the case of RRIRKRPPRLPRPRPRPYWAPRP, the “shrunken log2 fold change” value is -0.448. Consider RRIRMRPPRLPRPRPRPCFEPRP, for which the “shrunken log2 fold change” value stood at 0.286. With RRIRDRPPRLPRPRPRPHSRPRP the figure was -0.328. Regarding RRIRQRPPRLPRPRPRPGNSPRP, the “shrunken log2 fold change” value is -0.391. With RRIRERPPRLPRPRPRPAHKPRP, the “shrunken log2 fold change” value is -0.154. Consider RRIRWRPPRLPRPRPRPGSRPRP, for which the “shrunken log2 fold change” value came to 0.244. To RRIRFRPPRLPRPRPRPSHVPRP belongs -0.281. Consider RRIRGRPPRLPRPRPRPPRMPRP, for which the “shrunken log2 fold change” value was found to be 0.608. With RRIRGRPPRLPRPRPRPIHIPRP the figure was 0.304; with RRIRGRPPRLPRPRPRPHRGPRP, 0.0302; with RRIRQRPPRLPRPRPRPIYWPRP, 0.0909. For the sequence RRIRGRPPRLPRPRPRPGPAPRP, the “shrunken log2 fold change” value turned out to be 1.02. Consider RRIRSRPPRLPRPRPRPQCPPRP, for which the “shrunken log2 fold change” value was -0.172. On to RRIRYRPPRLPRPRPRPLWQPRP, for which the “shrunken log2 fold change” value was -0.499. For RRIRWRPPRLPRPRPRPCHKPRP, the “shrunken log2 fold change” value is -0.0267. With RRIRHRPPRLPRPRPRPYHTPRP, the “shrunken log2 fold change” value is -0.132. Regarding RRIRKRPPRLPRPRPRPYGFPRP, the “shrunken log2 fold change” value is -0.294. For the sequence RRIRDRPPRLPRPRPRPWKDPRP, the “shrunken log2 fold change” value was -0.0129.

With RRIRSRPPRLPRPRPRPNNQPRP, the “shrunken log2 fold change” value was -0.104. Consider RRIRNRPPRLPRPRPRPLWGPRP, for which the “shrunken log2 fold change” value was -0.192. As to RRIRNRPPRLPRPRPRPHTQPRP, the “shrunken log2 fold change” value is -0.328. With RRIRRRPPRLPRPRPRPHSLPRP, the “shrunken log2 fold change” value was -0.113. RRIRMRPPRLPRPRPRPYKYPRP: the “shrunken log2 fold change” value is -0.851. On to RRIRRRPPRLPRPRPRPLPQPRP, for which the “shrunken log2 fold change” value is 0.436. To RRIRGRPPRLPRPRPRPQSDPRP belongs 0.254; to RRIRYRPPRLPRPRPRPFQHPRP, -0.281. With RRIRHRPPRLPRPRPRPGHWPRP the figure was -0.0325; with RRIRWRPPRLPRPRPRPFFWPRP, 1.17; with RRIRRRPPRLPRPRPRPEKMPRP, 0.296. Take RRIRDRPPRLPRPRPRPMYMPRP: the “shrunken log2 fold change” value was -0.00623.

Take RRIRERPPRLPRPRPRPQGAPRP: the “shrunken log2 fold change” value turned out to be 0.169. To RRIRMRPPRLPRPRPRPKEEPRP belongs 0.0115; to RRIRYRPPRLPRPRPRPSVPPRP, -0.497; to RRIRARPPRLPRPRPRPLKMPRP, 0.283. Turning to RRIRQRPPRLPRPRPRPLDNPRP, the “shrunken log2 fold change” value is -0.151. In the case of RRIRGRPPRLPRPRPRPTPMPRP, the “shrunken log2 fold change” value came out at 0.887.

For the sequence RRIRGRPPRLPRPRPRPRTDPRP, the “shrunken log2 fold change” value came to 1.06. For the sequence RRIRWRPPRLPRPRPRPLDDPRP, the “shrunken log2 fold change” value is 0.454. Regarding RRIRMRPPRLPRPRPRPALAPRP, the “shrunken log2 fold change” value amounted to 1.08.

For RRIRMRPPRLPRPRPRPMCLPRP, the “shrunken log2 fold change” value was 0.292. Consider RRIRRRPPRLPRPRPRPYGFPRP, for which the “shrunken log2 fold change” value is -0.298. With RRIRDRPPRLPRPRPRPILQPRP, the “shrunken log2 fold change” value is -0.0838.

RRIRCRPPRLPRPRPRPKSCPRP: the “shrunken log2 fold change” value stood at 0.0733. Regarding RRIRCRPPRLPRPRPRPWAKPRP, the “shrunken log2 fold change” value was -0.234. With RRIRLRPPRLPRPRPRPPGPPRP the figure was 0.359; with RRIRTRPPRLPRPRPRPSFDPRP, -0.365.

Regarding RRIRARPPRLPRPRPRPTTTPRP, the “shrunken log2 fold change” value was found to be 0.264.

With RRIRWRPPRLPRPRPRPTTMPRP, the “shrunken log2 fold change” value was -0.0212. Regarding RRIRTRPPRLPRPRPRPMWTPRP, the “shrunken log2 fold change” value is -0.00193. In the case of RRIRARPPRLPRPRPRPLEMPRP, the “shrunken log2 fold change” value amounted to 0.75. As for RRIRKRPPRLPRPRPRPKCHPRP, the “shrunken log2 fold change” value was 0.182.

On to RRIRCRPPRLPRPRPRPHPMPRP, for which the “shrunken log2 fold change” value was -0.243. In the case of RRIRCRPPRLPRPRPRPQVHPRP, the “shrunken log2 fold change” value was -0.233.

For RRIRNRPPRLPRPRPRPDHCPRP, the “shrunken log2 fold change” value was 0.0463.

For RRIRPRPPRLPRPRPRPCYVPRP, the “shrunken log2 fold change” value was -0.469. For the sequence RRIRCRPPRLPRPRPRPVGSPRP, the “shrunken log2 fold change” value worked out at 0.0443. Regarding RRIRDRPPRLPRPRPRPVPVPRP, the “shrunken log2 fold change” value is -0.346.

As to RRIRERPPRLPRPRPRPTHRPRP, the “shrunken log2 fold change” value came to 0.243.

For RRIRCRPPRLPRPRPRPMMFPRP, the “shrunken log2 fold change” value is 0.312. For the sequence RRIRSRPPRLPRPRPRPSMMPRP, the “shrunken log2 fold change” value is -0.105.

Turning to RRIRDRPPRLPRPRPRPENCPRP, the “shrunken log2 fold change” value is -0.0102. For the sequence RRIRKRPPRLPRPRPRPETTPRP, the “shrunken log2 fold change” value is 1.53. For the sequence RRIRSRPPRLPRPRPRPPRTPRP, the “shrunken log2 fold change” value is 0.619. As for RRIRLRPPRLPRPRPRPTQAPRP, the “shrunken log2 fold change” value worked out at 0.507.
